Paper PMC12269619 (2025)
Positions count from the first letter of the chain named. Ends that are not written are not given here.

T1: Biotinylated junctional peptide NPDP19 (Plasmodium falciparum (isolate 3D7), also: biotinylated, position not given here)
T1 chain: KQPADGNPDPNANPNVDPN

B1: m43.151 Fab (Fab, V domains shown)
VH: QVHLVQSGAEVKKPGASVKVSCKASGYTFTSYAIHWVRQAPGQRLEWMGWIKGGNGNTRYSQKFQDRVTITRDTSASTAYMELSSLRSEDTAVYYCALLTVITPDDAFDIWGQGTMVTVSS
VL: not shown
B2: P3-43 Fab (m43.151 P100K_H) (Fab, V domains shown)
VH: B1 VH with P104K
VL: not shown
B3: m42.127 Fab (Fab, V domains shown)
VH: B1 VH with H3Q, G53A, A107T
VL: not shown
B4: P3-21 Fab (m42.127 T99R_H P100Q_H) (Fab, V domains shown)
VH: B1 VH with H3Q, G53A, T103R, P104Q, A107T
VL: not shown
B5: P3-42 Fab (m43.151 A100cR_H) (Fab, V domains shown)
VH: B1 VH with A107R
VL: not shown
B6: Biotinylated junctional peptide Pep21 (PfCSP peptide 21) (peptide)
peptide: NPDPNANPNVDPNAN
modifications: also: biotinylated, position not given here

How the values were obtained:
[1] = target: T1, Biotinylated junctional peptide NPDP19; experiment: BLI
[2] = target: PfCSPm; experiment: BLI; KD1
[3] = target: PfCSPm; experiment: BLI; KD2, second site
[4] = target: B6; experiment: BLI
[5] = target: P3-3; experiment: BLI
[6] = target: P3-10; experiment: BLI
[7] = target: P3-9; experiment: BLI
[8] = target: P3-17; experiment: BLI
[9] = target: P3-19; experiment: BLI
[10] = target: P3-45; experiment: BLI
[11] = target: P3-7; experiment: BLI

Binder	Kd [1] [nM]	Kd [2] [nM]	Kd [3] [nM]	Kd [4] [nM]	Kd [5] [nM]	Kd [6] [nM]	Kd [7] [nM]	Kd [8] [nM]	Kd [9] [nM]	Kd [10] [nM]	Kd [11] [nM]
B1	2.2	38.3	1700								
B2	1.7	33.9	1700								
B3	2.2	31.6	2000								
B4	2	20.2	1200	18							
B5	2.6	13	3400	14.5							
B6					15.4	20.4	21.8	17.8	14.6	19	24
